Blank lines part the entries; values can stand above or below the molecule they belong to.
Assays:
[1] = target: T1, Replication Protein A (RPA), 70 kDa subunit RPA1 (Homo sapiens, UniProt P27694); test: RPAi titration of purified Um-RPA binding to ssDNA (gel data, Fig. S6)
T1 construct: Full-length human (h)RPA heterotrimer, unmodified (Um-RPA); with RPA2 and RPA3 (RPA heterotrimer)

FEN1 = FEN1 (UniProt P39748 1-380); test: EMSA; 50 nM FEN1, 20 uM EDTA; high-affinity binding; EMSA: 50 mM Tris-HCl pH 8.0, 2 mM DTT, 30 mM NaCl, 0.1 mg/ml BSA, 5% glycerol, 10 min 37 °C; FEN1/RPA flap EMSA: same with 20 mM NaCl, 20 uM EDTA; BLI: 1X HAT buffer, 31.25-250 nM RPA; conditions: protein: recombinant; double flap: 20 nt 5' flap (strand 2), 1 nt 3' flap (strand 3); 1:2 1:3; 1 nt 5' overhang on strand 1
FEN1, sequence (P39748 whole entry): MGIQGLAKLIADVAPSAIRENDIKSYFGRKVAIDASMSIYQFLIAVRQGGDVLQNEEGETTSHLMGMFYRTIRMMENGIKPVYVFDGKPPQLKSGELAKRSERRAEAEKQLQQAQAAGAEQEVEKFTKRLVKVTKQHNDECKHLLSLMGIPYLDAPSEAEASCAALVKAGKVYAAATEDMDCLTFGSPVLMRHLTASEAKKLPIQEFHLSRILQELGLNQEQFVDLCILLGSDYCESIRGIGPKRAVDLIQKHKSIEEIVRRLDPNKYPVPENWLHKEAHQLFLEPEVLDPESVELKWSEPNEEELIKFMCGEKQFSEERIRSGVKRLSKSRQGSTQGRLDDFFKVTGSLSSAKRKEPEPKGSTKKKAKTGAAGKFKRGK

[2] = target: T2, Um-RPA (unmodified RPA heterotrimer) (Homo sapiens, UniProt P27694;P15927;P35244 1-616;1-270;1-121); test: BLI; KD only in Fig. 4D; smallest fold difference to Ac-RPA; EMSA: 50 mM Tris-HCl pH 8.0, 2 mM DTT, 30 mM NaCl, 0.1 mg/ml BSA, 5% glycerol, 10 min 37 °C; FEN1/RPA flap EMSA: same with 20 mM NaCl, 20 uM EDTA; BLI: 1X HAT buffer, 31.25-250 nM RPA; conditions: protein: recombinant; copies: 1;1;1; label: 3'-biotin (BLI); 5'-TAMRA (EMSA); single strand
T2 sequence (P27694 whole entry, chain 1 of 3): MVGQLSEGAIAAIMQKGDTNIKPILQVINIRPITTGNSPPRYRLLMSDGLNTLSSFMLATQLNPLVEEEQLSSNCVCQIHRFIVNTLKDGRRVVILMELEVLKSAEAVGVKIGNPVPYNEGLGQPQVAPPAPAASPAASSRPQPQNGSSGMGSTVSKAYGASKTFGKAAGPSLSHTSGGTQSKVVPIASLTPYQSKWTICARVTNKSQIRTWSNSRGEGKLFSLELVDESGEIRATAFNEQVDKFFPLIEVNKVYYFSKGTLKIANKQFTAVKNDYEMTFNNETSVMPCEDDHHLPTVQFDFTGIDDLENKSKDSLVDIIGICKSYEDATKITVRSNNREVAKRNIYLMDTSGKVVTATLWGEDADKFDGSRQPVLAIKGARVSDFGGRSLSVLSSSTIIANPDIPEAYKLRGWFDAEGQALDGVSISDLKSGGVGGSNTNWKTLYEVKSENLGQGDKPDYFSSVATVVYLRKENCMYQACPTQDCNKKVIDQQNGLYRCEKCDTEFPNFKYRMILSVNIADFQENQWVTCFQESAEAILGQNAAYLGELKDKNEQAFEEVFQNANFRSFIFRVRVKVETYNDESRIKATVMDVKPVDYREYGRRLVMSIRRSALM
T2 sequence (P15927 whole entry, chain 2 of 3): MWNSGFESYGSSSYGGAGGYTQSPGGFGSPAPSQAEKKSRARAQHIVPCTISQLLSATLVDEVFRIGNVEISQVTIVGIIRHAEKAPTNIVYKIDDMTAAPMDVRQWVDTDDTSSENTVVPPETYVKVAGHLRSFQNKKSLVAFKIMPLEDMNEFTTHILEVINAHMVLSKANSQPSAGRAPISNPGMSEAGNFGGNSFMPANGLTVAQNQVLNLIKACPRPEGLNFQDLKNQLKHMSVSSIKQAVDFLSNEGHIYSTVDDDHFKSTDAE
T2 sequence (P35244 whole entry, chain 3 of 3): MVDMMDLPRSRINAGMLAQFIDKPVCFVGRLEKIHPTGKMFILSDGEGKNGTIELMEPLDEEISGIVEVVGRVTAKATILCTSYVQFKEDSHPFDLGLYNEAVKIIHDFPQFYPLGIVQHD

[3] = target: T2, Um-RPA (unmodified RPA heterotrimer); test: BLI; KD only in Fig. 4D; higher KD than Ac-RPA; EMSA: 50 mM Tris-HCl pH 8.0, 2 mM DTT, 30 mM NaCl, 0.1 mg/ml BSA, 5% glycerol, 10 min 37 °C; FEN1/RPA flap EMSA: same with 20 mM NaCl, 20 uM EDTA; BLI: 1X HAT buffer, 31.25-250 nM RPA; conditions: protein: recombinant; copies: 1;1;1; label: 3'-biotin (BLI); 5'-32P (EMSA); single strand
RPA1 DBD-F, unmodified = RPA1 DBD-F, unmodified (Homo sapiens, UniProt P27694 1-180); test: EMSA; 25-150 nM protein, 25 nM DNA; EMSA: 50 mM Tris-HCl pH 8.0, 2 mM DTT, 30 mM NaCl, 0.1 mg/ml BSA, 5% glycerol, 10 min 37 °C; FEN1/RPA flap EMSA: same with 20 mM NaCl, 20 uM EDTA; BLI: 1X HAT buffer, 31.25-250 nM RPA; conditions: protein: recombinant; tags: C-terminal His6; label: 5'-TAMRA; single strand
RPA1 DBD-F, unmodified, sequence (P27694 1-180): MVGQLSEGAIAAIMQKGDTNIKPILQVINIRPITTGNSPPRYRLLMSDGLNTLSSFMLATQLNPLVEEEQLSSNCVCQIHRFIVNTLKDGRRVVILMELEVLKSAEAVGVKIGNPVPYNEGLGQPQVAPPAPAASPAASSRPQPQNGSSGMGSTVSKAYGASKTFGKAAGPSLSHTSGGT

T1 sequence (P27694 whole entry): as the sequence (P27694 whole entry, chain 1 of 3) above
T1 sequence (P15927 whole entry partner): as the sequence (P15927 whole entry, chain 2 of 3) above
T1 sequence (P35244 2-121 partner): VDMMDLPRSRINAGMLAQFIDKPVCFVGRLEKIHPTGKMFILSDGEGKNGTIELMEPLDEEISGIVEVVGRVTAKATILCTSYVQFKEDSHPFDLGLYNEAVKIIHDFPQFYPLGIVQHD

IC50 [1]: 6.43 ± 0.29 µM
Molecule: DA1-73

IC50 [1]: 4.46 ± 0.11 µM
Molecule: CCOc1ccc2cc(C3CC(c4ccc(I)cc4)=NN3C(=O)CCCC(=O)O)c(Cl)nc2c1 (stereo not shown) [TDRL-551]

B1: 20 nt double flap (U26:D43:T49) (structured_DNA)
DNA 1: GCCCAGTCACGTCGTTGTAAAACGGGTCGTGACTGGGAAAACCCTGGCG
DNA 2: TTAGTTAATTCACTGGCCGTCGTTTTACAACGACGTGACTGGG
DNA 3: CGCCAGGGTTTTCCCAGTCACGACCA
binding result (FEN1): binds

Molecule: TTCACTATAACTACCTAATCTTCTGGCCGTACTGAACTACTGACA (ssDNA) [LB.45 (45 nt)]
binding result [2]: binds

Molecule: TTCACGCCTGTTAGTTAATTCACTGGCCGTAC (ssDNA) [LB.32 (32 nt)]
binding result [3]: binds

Molecule: TTCACGAGATTTACTTATTTCACTGCGGCT (ssDNA) [LB.30 (30 nt)]
binding result (RPA1 DBD-F, unmodified): no binding

Molecule: TTCACGCCTGTTAGTTAATTCACTGGCC (ssDNA) [LB.28 (28 nt)]
binding result [3]: binds

— publication PMC12182300, “Biochemical impact of p300-mediated acetylation of replication protein A: Implications for DNA metabolic pathway choice” (The Journal of Biological Chemistry, 2025)
